B1: 4I22 (antibody, V domains shown)
VH: QVQLVESGGGVVQPGRSLRLSCVASGFTFSSYAMHWVRQAPGKGLEWVAVISYDGDNKFYADSVKGRFRISRDTSKNTLYLEMNSLRAADTAIYYCAREELVGLMPPYYNYGLDVWGQGTTVTVSS
VL: QSVLTQPPSVSAAPGQKVTISCSGSNSNIGNNYVSWYQQLPGRAPKLLIYDNDHRPSGIPDRFSGSKSGTSATLVITGLQTGDEADYYCETWDTSLSAAVVFGGGTKLTVL
B2: 8J16 (antibody, V domains shown)
VH: QVQLQESGPGLVKPSETLSLTCSVSGGFTSSYYWSWIRQAPGKGLEWIGYVYYGESTDYNPSLKSRATISIDTSKNQFSLKLSSVTAADTAVYYCAREVDKRGFDYWGQGALVTVSS
VL: EIVLTQSPGTLSLSPGERATLSCRASQSVSGGYLAWYQQEPGQAPRLVIYGASSRATGIPDRFSASGSGTDFTLTITRLEPEDFAVYYCQQYGRTPLTFGGGTKVEIK
B3: 8C15 (antibody, V domains shown)
VH: QVQLQESGPGLVKPSETLSLTCTVSGGSIRSYYWSWIRQPPGKGLEWIGHIYYSGNTNYSPSLQSRVTISLDTPKNQFSLRLSSVTAADTAVYYCARHDVIVVRGVFDVWGQGTVVTVSS
VL: QSALTQPASVSGSPGQSITISCTGTSSDIGTYNLVSWYQQHPGKAPKVLIYDGSKRPSGVSSRFSASKSGNTASLTISGLQAEDETDYYCCSYAGTSDFFVVFGGGTKLTVL
B4: 7I13 (antibody, V domains shown)
VH: QVQLVESGGGVVQPGRSLRLSCAASGFTFSNYGMHWVRQGPGKGLEWVAVISYDASSKYYTDSVQGRFTISRDNSKNTLFLQMNSLRGEDTAVYYCAKALRYLDWFLSDPFDYWGQGTLVTVSS
VL: EIVLTQSPGTLSLSPGERATLSCRASQSVSSDFLAWYQQKPGQAPRLLIYGASSRATGIPDRFSGSGSGTDFTLTISRLEPEDFAVYYCQQYAASPPFGQGTRLEIK
B5: 7B13 (antibody, V domains shown)
VH: QVQLVESGGGVVQPGGSLRLSCAASGFSFSNYGMHWVRQAPGKGLEWVALIPSDGNYQYYTDSVKGRFTVSRDNSRNTLYLQMKSLRAEDTARYHCAHLGGGLFDFWGQGTLVTVSS
VL: QSALNQPRSVSGSPGQSVSISCTGSSSDVGGYEFVSWYQHHPGKAPKLIIYDVDKRPSGVPDRFSGSRSGDTASLTISGLQAEDEADYYCYSSADTWVFGGGTKLTVL
B6: 10P3 (antibody, V domains shown)
VH: EVQLVESGGGLVRPGGSLRLSCAASGFTFHNYRMNWVRQAPGKGLEWVANIKQDGSEKSYVDSVRGRFTTSRDNSKNSLYLQINSLRAEDTAVYYCARGEGYTYGVVYSYSAMDVWGQGTTVIVSS
VL: SYELTQPPSVSVSPGQTARITCSGNVLPNQYASWYQQKPGQAPVLVIYKDTERPSGIPGRFSGSSSGTTVTLTISGVQAEDEADYYCQSADSSGADYVFGTGTKVTVL
B7: 15D8 (antibody, V domains shown)
VH: EVQLVQSGAEVKKPGESLKISCQASGYSFTNYWIAWVRQMPGKGLEWMGIIYPGDSDIKYSPSFRGQVTISADKSISNAFLQWRSLRASDTAMYYCARHAIRGDGFDYWGQGTLVTVSS
VL: SYELTQPPSVSVSPGQTATITCSGDKLGEKYACWYQQKPGQSPVLVMYQDTKRPSGIPERFSGSNSGNTATLTISGTRAMDEADYYCQAWDTNTVIFGGGTKLTVL
B8: 4N10 (antibody, V domains shown)
VH: QVQLVQSGAEVKKPGSSVRVSCKASGGTFSSYVIIWVRQAPGQGLEWMGGVIPIFDTVNYAQKFQGRVTITADESTSTAYMELSSLKSEDTAVYYCARGILAYCGGDCYNTPYGMDVWGQGTTVTVSS
VL: DIQMTQSPSILSASVGDRVTITCRASQSISSWLAWYQQKPGKAPKLLIYKASSLEIGVPSRISGSGSGTEFTLTISSLQPDDFATYYCQQYNSSWTFGQGTKVEIK
B9: 10F7 (antibody, V domains shown)
VH: EVQLVESGGGLVQPGRSLRLSCTASGFTFGDYAMSWFRQAPGKGLEWVGFIRSKAYGGTTEYAASVKGRFTISRDDSKSIAYLQMNSLKTEDTAVYYCTRASSLLWLLNPQPNFDYWGQGTLVTVSS
VL: SYVLTQPPSVSVAPGQTARITCGGNNIGSNNVHWYQQKPGQAPVLVVYDDSDRPSGIPERFSGSNSGNTATLTISRVEAGDEADYYCQVWDSSSDHPVFGGGTKLTVL
B10: 8I21 (antibody, V domains shown)
VH: LVELVESGGGVVQPGRSLRLSCAASGFTFSSDGMHWVRQSPGRGLEWVAFISSDGSTPYYADSVKGRFTISRDNSKNTLYLQMNSLRAEDTAMYFCAKDWALFRWLRTFDHWGQGTLVTVSS
VL: not shown
B11: 8L13 (antibody, V domains shown)
VH: QVQLLESGGGVVQPGRSLRLSCAASGFTFSNYGMHWVRQAPGKGLEWVAVIWNDGSKKYYAESVKGRFTISRDNSKNTVYLQMNSLRAEDTAVYYCARDEGVQMVFAMPDYGMDVWGQGTTVTVSS
VL: SYELTQPPSVSVSPGQTASITCSGDKLGDKFACWYQQRPGQSPILVIYQDSKRPSGIPERFSGSNSGNTATLTIRGTQAMDEADYYCQAWDSSTAHYVFGTGTKVTVL

These binders were tested against T1, hCMV gH + gL + UL128 + UL130 + UL131A (co-expressed in HEK293T cells) (human cytomegalovirus), P12824 (assay: competitor: 8J16-biotin; cell staining). Conditions: remark: other sources report otherwise.

Row | Binder | Inhibition of binding (%)
1 | B1 | 0%
2 | B2 | 100%
3 | B3 | 100%
4 | B4 | 0%
5 | B5 | 100%

These binders were tested against T1, hCMV gH + gL + UL128 + UL130 + UL131A … (assay: competitor: 9I6-biotin; cell staining). Conditions: remark: other sources report otherwise.

Row | Binder | Inhibition of binding (%)
6 | B2 | 70%
7 | B3 | 100%
8 | B4 | 0%
9 | B5 | 100%

The binders below were run against T1, hCMV gH + gL + UL128 + UL130 + UL131A … (assay: competitor: 2F4-biotin; cell staining). Conditions: remark: other sources report otherwise.

Row | Binder | Inhibition of binding (%)
10 | B1 | 100%
11 | B2 | 0%
12 | B6 | 0%
13 | B7 | 0%
14 | B8 | 0%
15 | B9 | 100%
16 | B10 | 0%

Each binder was assayed against T1, hCMV gH + gL + UL128 + UL130 + UL131A … (assay: competitor: 8I21-biotin; cell staining). Conditions: remark: other sources report otherwise.

Row | Binder | Inhibition of binding (%)
17 | B1 | 0%
18 | B2 | 0%
19 | B6 | 0%
20 | B7 | 0%
21 | B8 | 90%
22 | B3 | 0%
23 | B4 | 0%
24 | B9 | 0%
25 | B5 | 0%
26 | B10 | 100%

These binders were tested against T1, hCMV gH + gL + UL128 + UL130 + UL131A … (assay: competitor: 2C12-biotin; cell staining). Conditions: remark: other sources report otherwise.

Row | Binder | Inhibition of binding (%)
27 | B1 | 0%
28 | B2 | 100%
29 | B6 | 0%
30 | B7 | 0%
31 | B8 | 0%
32 | B3 | 100%
33 | B4 | 0%
34 | B9 | 0%
35 | B5 | 100%
36 | B10 | 0%

What follows are binders tested against T1, hCMV gH + gL + UL128 + UL130 + UL131A … (assay: competitor: 6G4-biotin; cell staining). Conditions: remark: other sources report otherwise.

Row | Binder | Inhibition of binding (%)
37 | B2 | 100%
38 | B6 | 0%
39 | B7 | 0%
40 | B8 | 0%
41 | B3 | 100%
42 | B4 | 0%
43 | B9 | 0%
44 | B5 | 100%
45 | B10 | 0%

What follows are binders tested against T1, hCMV gH + gL + UL128 + UL130 + UL131A … (assay: competitor: 1F11-biotin; cell staining). Conditions: remark: other sources report otherwise.

Row | Binder | Inhibition of binding (%)
46 | B1 | 100%
47 | B11 | 100%
48 | B2 | 0%
49 | B6 | 0%
50 | B7 | 0%
51 | B8 | 0%
52 | B4 | 0%
53 | B9 | 100%
54 | B10 | 0%

Each binder was assayed against T1, hCMV gH + gL + UL128 + UL130 + UL131A … (assay: competitor: 4N10-biotin; cell staining). Conditions: remark: other sources report otherwise.

Row | Binder | Inhibition of binding (%)
55 | B1 | 0%
56 | B7 | 0%
57 | B8 | 100%
58 | B9 | 0%
59 | B10 | 90%

The binders below were run against T1, hCMV gH + gL + UL128 + UL130 + UL131A … (assay: competitor: 4I22-biotin; cell staining). Conditions: remark: other sources report otherwise.

Row | Binder | Inhibition of binding (%)
60 | B1 | 100%
61 | B2 | 0%
62 | B6 | 0%
63 | B7 | 0%
64 | B8 | 0%
65 | B3 | 0%
66 | B9 | 100%
67 | B10 | 0%

These binders were tested against T1, hCMV gH + gL + UL128 + UL130 + UL131A … (assay: competitor: 5A2-biotin; cell staining). Conditions: remark: other sources report otherwise.

Row | Binder | Inhibition of binding (%)
68 | B1 | 0%
69 | B7 | 0%
70 | B8 | 100%
71 | B9 | 0%
72 | B10 | 95%

The binders below were run against T1, hCMV gH + gL + UL128 + UL130 + UL131A … (assay: competitor: 10F7-biotin; cell staining). Conditions: remark: other sources report otherwise.

Row | Binder | Inhibition of binding (%)
73 | B1 | 100%
74 | B11 | 100%
75 | B7 | 0%
76 | B8 | 0%
77 | B9 | 100%

The binders below were run against T1, hCMV gH + gL + UL128 + UL130 + UL131A … (assay: competitor: 15D8-biotin; cell staining). Conditions: remark: other sources report otherwise.

Row | Binder | Inhibition of binding (%)
78 | B6 | 0%
79 | B7 | 100%
80 | B8 | 0%
81 | B9 | 0%
82 | B10 | 0%

These binders were tested against T1, hCMV gH + gL + UL128 + UL130 + UL131A … (assay: competitor: 8C15-biotin; cell staining). Conditions: remark: other sources report otherwise.

Row | Binder | Inhibition of binding (%)
83 | B2 | 100%
84 | B3 | 100%
85 | B4 | 0%
86 | B5 | 100%

Reference: patent US20170129940A1
